Test results taken from US20160115201, “PEPTIDES BINDING TO PARALLEL-STRANDED G-QUADRUPLEXES” (NANYANG TECHNOLOGICAL UNIVERSITY, published 2016).

What was measured:
[1] = molecular target: T1, Rhau55 (N-terminal fragment of RHAU/DHX36) (UniProt Q9H2U1 SEQ:3-55); assay: EMSA; 70 mM KCl, 20 mM phosphate pH 6.8; settings: tags: expressed in E. coli
T1 sequence: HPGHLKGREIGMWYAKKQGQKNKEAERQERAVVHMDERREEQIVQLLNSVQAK
Procedure: (§1) The ratio between Rhau55 and Nucleic acids is indicated on top of each lane. DNA concentrations were fixed at 100 μM, in 70 mM KCL and 20 mM phosphate buffer (pH=6.8).

[2] = molecular target: T1, Rhau55 (N-terminal fragment of …); assay: EMSA; RNA G4; 70 mM KCl, 20 mM phosphate pH 6.8; settings: tags: expressed in E. coli; parallel RNA G4
Procedure: as §1

[3] = molecular target: T1, Rhau55 (N-terminal fragment of …); assay: NMR imino protons, mixture with T95_2T; only T95_2T peaks affected; settings: tags: expressed in E. coli; non-parallel G4 form 1
[4] = molecular target: T1, Rhau55 (N-terminal fragment of …); assay: EMSA; 70 mM KCl, 20 mM phosphate pH 6.8, room temperature; settings: tags: expressed in E. coli; parallel (propeller) G4

TGAGGGTGGTGAGGGTGGGGA (structured_DNA) [Pu24T]
binding result ([1]; parallel G4): binds

GGGUUGCGGAGGGUGGGC (ssRNA) [TERC18]
binding result [2]: binds

GGGUUAGGGU (ssRNA) [10-nt TER]
binding result [2]: binds

AGGGGGGAGGGAGGGTGG (structured_DNA) [CEB1]
binding result ([1]; parallel G4): binds

GGGGTGGGAGGAGGGT (structured_DNA) [93del]
binding result ([1]; interlocked dimeric parallel G4): binds

TTGGGTTAGGGTTAGGGTTAGGGA (structured_DNA) [HT1]
binding result [3]: no binding

AAGGGTGGGTGTAAGTGTGGGTGGGT (structured_DNA) [CEB25]
binding result ([1]; parallel G4): binds

UAGGGUUAGGGU (ssRNA) [12-nt TER]
binding result [2]: binds

TTGGGTGGGTGGGTGGGT (structured_DNA) [T95_2T]
Kd [4]: 989 nM
